From the DeepSol protein solubility set

Experiment: soluble on expression in E. coli; label from the status in PepcDB or PDB records

Sequence | soluble on expression in E. coli
MAHHHHHHMQQASAAASDEWRTKFGGGGASHDWQASKGNFTNQEFESYWGQKWPNWLKTEKATYPNAANKKWLEQNPPPKQGPAQAKTAKQLAVYAEEAAALARTYTEGITAAHGRELKAIKTALRAALYGTNKKTARAFRR | soluble
GVALGATRVIYPAGQKQVQLAVTNNDENSTYLIQSWVENADGVKDGRFIVTPPLFAMKGKKENTLRILDATNNQLPQDRESLFWMNVKAIPSMDKSKLTENTLQLAIISRIKLYYRPAKLALPPDQAAEKLRFRRSANSLTLINPTPYYLTVTELNAGTRVLENALVPPMGESAVKLPSDAGSNITYRTINDYGALTPKMTGVME | soluble
MTAEPMSESKLNTLVQKLHDFLAHSSEESEETSSPPRLAMNQNTDKISGSGSNSDMMENSKEEGTSSSEKSKSSGSSRSKRKPSIVTKYVESDDEKPLDDETVNEDASNENSENDITMQSLPKEDGLHGIVSCTACGQQVNHFQKDSIYRHPSLQVLICKNCFKYYMSDDISRDSDGMDEQCRWCAEGGNLICCDFCHNAFCKKCILRNLGRKELSTIMDENNQWYCYICHPEPLLDLVTACNSVFENLEQLLQQNKKKIKVDSEKSNKVYEHTSRFSPKKTSSNCNGEEKKLDDSCSGSVTYSYSALIVPKEMIKKAKKLIETTANMNSSYVKFLKQATDNSEISSATKLRQLKAFKSVLADIKKAHLALEEDLNSEFRAMDAVNKEKNTKEHKVIDAKFETKARKGEKPCALEKKDISKSEAKLSRKQVDSEHMHQNVPTEEQRTNKSTGGEHKKSDRKEEPQYEPANTSEDLDMDIVSVPSSVPEDIFENLETAMEVQSSVDHQGDGSSGTEQEVESSSVKLNISSKDNRGGIKSKTTAKVTKELYVKLTPVSLSNSPIKGADCQEVPQDKDGYKSCGLNPKLEKCGLGQENSDNEHLVENEVSLLLEESDLRRSPRVKTTPLRRPTETNPVTSNSDEECNETVKEKQKLSVPVRKKDKRNSSDSAIDNPKPNKLPKSKQSETVDQNSDSDEMLAILKEVSRMSHSSSSDTDINEIHTNHKTLYDLKTQAGKDDKGKRKRKSSTSGSDFDTKKGKSAKSSIISKKKRQTQSESSNYDSELEKEIKSMSKIGAARTTKKRIPNTKDFDSSEDEKHSKKGMDNQGHKNLKTSQEGSSDDAERKQERETFSSAEGTVDKDTTIMELRDRLPKKQQASASTDGVDKLSGKEESFTSLEVRKVAETKEKSKHLKTKTCKKVQDGLSDIAEKFLKKDQSDETSEDDKKQSKKGTEEKKKPSDFKKKVIKMEQQYESSSDGTEKLPEREEICHFPKGIKQIKNGTTDGEKKKKK | soluble
MGSDKIHHHHHHMTEILLKELTKSDIDWMITTGNQQELAAGTILIQERGSTEFFHILLDGTFSVTLSQPENNPLTRAFAAIEGEEISGREIGRLSRGEIVGESPLIGTRPPATTITSVEKSLVISIPIRELAAKLQQDVGFAARFYRAIAIIISNRIENTIDQLGRRNLAQSQPLRDVLFILGELHDSDIDWMMASGTPQKIPANTILIHEQGTVDALYILLDGKMSLSISLDERNPLVRAFAAIEGNEISGREIAKLSKGEIIGETPFIDGSLPPTTVKAIEHSVVLSIPRQQLAAKLQQDIGFASRFYRVIASLLDQRLQPMVSQLGYGRRVYSRGESLHEGLEYDDELDINTLDRMAIAGKRFDWMLERLKVS | not soluble
SNASKEKREKLEAYQHLFYLLQTNPTYLAKLIFQMPQNKSTKFMDSVIFTLYNYASNQREEYLLLRLFKTALQEEIKSKVDQIQEIVTGNPTVIKMVVSFNRGARGQNALRQILAPVVKEIMDDKSLNIKTDPVDIYKSWVNQMESQTGEASKLPYDVTPEQALAHEEVKTRLDSSIRNMRAVTDKFLSAIVSSVDKIPYGMRFIAKVLKDSLHEKFPDAGEDELLKIIGNLLYYRYMNPAIVAPDAFDIIDLSAGGQLTTDQRRNLGSIAKMLQHAASNKMFLGDNAHLSIINEYLSQSYQKFRRFFQTACDVPELQDKFNVDEYSDLVTLTKPVIYISIGEIINTHTLLLDHQDAIAPEHNDPIHELLDDLGEVPTIESLIGESS | soluble
MASSPQLEEEAAGKLETIHASAMAKSKKKTDVVDSTNLPILELLSLKAPIFQSLLHPELPIIITGFGTGHIVCHRYDPAKLQSHLDRRRRIDTATTGKDAKKGVCPWIRLDIDLETGDLKFVDIEEQQQQKQTGKDEDLGVKTLWKTKRHKGSVRAMCFDSKGDNIFSVGSDNVLKKANTMTGKVVKKVNLSSLFNSEEKKNDKFTKLCASQTHPFILIGDESGNIHVINSENLALSNSIRSIHFGDSINDIFHFDKRSAYKFISLGQTTLAYFDVRDKDAKPNVAGNEDGKILISDDQEDEVLCGCFVDPEVADTLLCGMGEGIVTVWKPNKNDLEDQMSRIKISKDESIDCIVPTLQDDNCVWCGCSNGNIYKVNAKLGKVVEIRNHSELDEVSFVDLDFEYRVVSGGLENIKIWELSSDDVEENASVESDSDEPLSHSDEDLSDDTSSDDETTLVGLSKEELLDELDKDLKEDHQEEKESNSKSVKKRKIMKENNKKKDLYEHGIKKFDDL | soluble
MDIDMNYPSITTLMSNESANLLIIWGNATPDISYLSYTTNPMLGDYVLNVSAINGCTEELIATHLVPTLENATQWVYDAGEYWDNYSFTDESTPLPGLSWPFNE | not soluble
MKERMQKTSAQAHDFPQRARTESEWYEGVQTFMWMTEDNIVEVPFDKEHLLEIILSPSNLNKAYKAVVRNNGSGGIDKMSCEQLLSWLKANKDELIISLQSGTYRPNPVRRVEIPKDNGKKRLLGIPTVVDRLVQQAINQVLTLIYERQFSKTSYGFRPQRGCHDALRKAQKIVSEGYIYVVDLDLERFFDTVSHSKLIEILSRTIKDGRVISLIHKYLRSGVINRGMFEMSTEGTPQGGPLSPLLSNIMLNELDKELERRGHPFVRYADDAMIFCKSKRAAKRVRESITLFIEGKLFLKVNHEKTVVSYVKGVKFLGYSFYVKKGDCILLVHSKSKNKMKSKLKELTSRSNGWGYEKRKQKLKDYIRGWIAYFCLAQMKRLCIETDEWLRRRIRMCIWKSWKNAKTRVANLKKCGVSEWQAYQWGNTRLGYWRVSNSPIVTFVMSNDKLRKAGYMEFMDCYLKWCPK | not soluble
MAHHHHHHMGKALGMQRAKAQRLRKVVLRGSAAGSRSFLLYAQPTPNMLSETSGAVVDMCTDEFSIDIKEPSPEDAIVVASLTLRKKKMQKWREEKRTAAKPPKRAQSGASTCTLNFNKQETRWPLKISEC | not soluble
MAHHHHHHMSEGGRRRKVYGFKAERQAFFSKHVRQTFLEEGRKKKDEERARMEAYRKLCEEEGIVSKRLEDYDRTRKAAKEHLSSTLEQIDYDQSLTNNEKKKRKYNLKRKFAATTVNDLIDKQQKHYSAVSGMEEVQRRQQQEREEKQKARQEREREKQSRVQARKSRNALFAKRTKKGQPAMSSRVESLLQKISWQ | not soluble
VTPYEDLLRFVLETGTPKSDRTGTGTRSLFGQQMRYDLSAGFPLLTTKKVHFKSVAYELLWFLRGDSNIGWLHEHGVTIWDEWASDTGELGPIYGVQWRSWPAPSGEHIDQISAALDLLRTDPDSRRIIVSAWNVGEIERMALPPCHAFFQFYVADGRLSCQLYQRSADLFLGVPFNIASYALLTHMMAAQAGLSVGEFIWTGGDCHIYDNHVEQVRLQLSREPRPYPKLLLADRDSIFEYTYEDIVVKNYDPHPAIKAPVAV | not soluble
MHVALHTVRMYPRNTSMVAIPSRELSPRRDGFRELLETNYQKRDLVHLTAGSVVPLLKNSIWLVVRGMVKLGAVSVHGDELLLGLAGPNEPFGEPLSTVEAYEAVALSDCDLLCLSANEVEQAPQLALAMMDAIGARYRQAEYMLALLGLRRVEERVRGFLEMLAQDYGQPCDDGLRLNLRLTHQEMASALSTTRVTVTRVIGLLRDEGWLKIDAQRHLVIAHLPRR | not soluble
MQCALYDAGRCRSCQWITQPIPEQLSAKTADLKNLLADFPVEEWCAPVSGPEQGFRNKAKMVVSGSVEKTLLGMLHRDGTPEDLCDCPLYPASFAPVFAALKPFIARAGLTPYNVARKRGELKYILLTESQSDGGMMLRFVLRSDTKLAQLRKALPWLHEQLPQLKVITVNIQPVHMAIMEGETEIYLTEQQALAERFNDVPLWIRPQSFFQTNPAVASQLYATARDWVRQLPVKHMWDLFCGVGGFGLHCATPDMQLTGIEIAPEAIACAKQSAAELGLTRLQFQALDSTQFATAQGEVPELVLVNPPRRGIGKPLCDYLSTMAPRFIIYSSCNAQTMAKDIRELPGYRIERVQLFDMFPHTAHYEVLTLLVKQ | not soluble
MGSDKIHHHHHHMAEDLTPEGGDRAPSKDGSVPAYAGRQSADPGWEWGKIRGDFWKHRNEKPLYSIDGSNVDKYAEQLTPGQVQLVKQKKGYRMDVYPSHRECQASDFVAQNSKANLTGAKLDSTGEQLQTAILPGVPFPQPKNGAEAMLNYLMRYRGEGIEWPSVVTTVSPRPGSSDWIDAISTATQYFPASKQGKRTPHDVDQLSSATFFKMESPPALAGQAFVQRQFFNKDPETFYYFPGQRRVRRMPAYTHDAPAIGFENQYLIDEANMFFGAIDRFDWKLAGKKEMIVPYNAFGMYKFNDKLHDVVTPDGIAAANRRYEMHRVWVVEATLKPSARHVASKKVFYLDEDSWLALVANDYDAQGKLWRVRESYPIPVWELGGACDNEPFAQYDLINGRYVTDQSTIGQGKDIRWYEKTNDPRFKPDFFTSESLRSVSER | not soluble
MKPSHQQQKQASAAKDEKKDIIPLSAEKADGAEGWLNNSTILYTASNPTKTELFPYRIFTGKAKKLYQTDGQIVDVQINAREQMILLQITHSQKTAVVLLNAEGETLYEKDYETYELEAAWNQYDPYQMMVTEFNENWDFHTYQVNAKKDESFLSPVQVPFIHWTSKNTFDYVKEGRDDKTGPLYTFDTASKTEQKLEDNVLFFDSFHQMSFTVKSASGGKGTYQFKTPQSTSPVTAKWPLQAKYTSLAPMEYDYDEAGSLFYTFKQSGDAYKLAAINVASGETKDLVSLREMEPIQISPNGKYALYGFHFEQIILLKSHETKQLIIDQKEMELEHHHHHH | soluble
MHTIPITTDSAASWDWPLQHNDGVVKVTNTSEKFEVGLDAGFFGPNDIDVKVNGIEIIIHLRHDNRPTEYGIVNREVHRTYKLPEDVDPSTVRSHLNSSGVLTITANKL | not soluble
MTDTAENQTQNNWQAGHPRSIRSFVLRQSHMTAAQQRAIDTLWDSFGIDYQATPADLDARFGSSRPKILEIGFGMGTATAEIARRLPETDFLAIDVHGPGVGNLLKLIDENHLENIRVMRHDAVEVVENMLQDGSLDGIHIFFPDPWHKKRHHKRRLIQAPFIAKLLPKLKTGGYIHLATDWEEYAQQMLEVLSSFDSLQNTAADYAPTPDYRPETKFEARGKRLGHGVWDLVFKRIG | not soluble
MSLIEEEVLKIIKPTEEDKKGIEKVLEIIRERLNKLDFEVEGSFRKGTWLRQDTDIDVFVFYPKDVGKEYLERNALNDIINRIKDLDYTLAYAEHPYVIVNINNVEVDIVPALRVESGDKAITAVDRTPFHTKYVTSHLDERGKDEVRLLKRFMKGIGVYGAELKVQGFSGYATELLIIYYGNFRKVLEEASKWKHPIKIELTKPMKIFSEPLIIPDPVDPKRNVTAAVSLKNIATFSIAAKYYLKNPSIEFFFPSKKVEEKVKGDVLILRLNLDEKSSEDIVWGQIKRSVNKIERALKQYGFRVIDVQAWGDTNNITIAVQLESKNIGQYYLNIGPQYYSGTIEDFIQKNDNIWVGEDGRLYSIKERKEYDAETIAKKNIVLKVKYNIESYWLQNTEDQQIMKFLRKTPTWLKEGHHHHHH | not soluble
